# Test results: IntAct's records for PubMed 25117763
# B1: Axin interactor, dorsalization-associated protein (Mus musculus), Q8C4Q6-1 (parent)
# chain: MSEVTRSLLQRWGASLRRGADFDSWGQLVEAIDEYQILARHLQKEAQAQHNNSEFTEEQKKTIGKIATCLELRSAALQSTQSQEEFKLEDLKKLEPILKNILTYNKEFPFDVQPIPLRRILAPGEEENLEFEEDEEGGAGAGPPDSFSARVPGTLLPRLPSEPGMTLLTIRIEKIGLKDAGQCIDPYITVSVKDLNGIDLTPVQDTPVASRKEDTYVHFNVDIELQKHVERLTKGAAIFFEFKHYKPKKRFTSTKCFAFMEMDEIKPGPIVIELYKKPTDFKRKKLQLLTKKPLYLHLHQSLHKE
# Variants of: B1
# Conditions: with Axin1, O35625-2
# Sequence of Axin1, O35625-2 (O35625 other isoform, or with tags, fused parts or gaps): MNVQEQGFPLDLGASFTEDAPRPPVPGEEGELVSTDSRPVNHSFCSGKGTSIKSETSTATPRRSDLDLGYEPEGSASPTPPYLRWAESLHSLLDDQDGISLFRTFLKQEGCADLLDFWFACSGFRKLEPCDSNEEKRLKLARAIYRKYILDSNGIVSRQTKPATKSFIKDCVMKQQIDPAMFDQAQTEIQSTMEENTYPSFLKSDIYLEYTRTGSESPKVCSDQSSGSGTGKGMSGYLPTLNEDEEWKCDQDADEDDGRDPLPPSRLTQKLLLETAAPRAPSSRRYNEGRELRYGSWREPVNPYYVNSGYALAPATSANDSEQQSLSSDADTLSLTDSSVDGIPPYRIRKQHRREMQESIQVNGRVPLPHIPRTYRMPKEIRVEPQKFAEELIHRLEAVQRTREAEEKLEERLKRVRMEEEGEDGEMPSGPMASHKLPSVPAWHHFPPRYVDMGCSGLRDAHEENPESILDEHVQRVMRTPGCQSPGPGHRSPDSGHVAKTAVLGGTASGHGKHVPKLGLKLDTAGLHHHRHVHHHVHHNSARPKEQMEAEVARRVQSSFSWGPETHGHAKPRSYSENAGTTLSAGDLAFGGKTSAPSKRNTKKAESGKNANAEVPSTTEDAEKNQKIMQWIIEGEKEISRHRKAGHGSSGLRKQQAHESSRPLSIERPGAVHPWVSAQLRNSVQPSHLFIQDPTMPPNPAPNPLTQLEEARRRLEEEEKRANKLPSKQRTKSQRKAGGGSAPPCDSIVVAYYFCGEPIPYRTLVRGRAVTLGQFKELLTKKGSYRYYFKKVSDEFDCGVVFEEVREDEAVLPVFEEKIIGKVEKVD
row,Variant,effect of a mutation on the interaction
1,MSEVTRSLLQRWGASLRRGADFDSWGQLVEAIDEYQILARHLQKEAQAQHNNSEFTEEQKKTIGKIATCLELRSAALQSTQSQEEFKLEDLKKLEPILKNILTYNKEFPFDVQPIPLRRILAPGEEENLEFEEDEEGGAGAGPPDSFSARVPGTLLPRLPSEPGMTLLTIRIEKIGLKDAGQCIDPYITVSVKDLNGIDLTPVQDTPVASRKEDTYVHFNVDIELQKHVERLTKGAAIFFEFKHYKPKKRFTSTKCFAFMEMDEIKPGPIVIELYKKPTDFAAAALQLLTKKPLYLHLHQSLHKE [K282A;R283A;K284A;K285A],disrupting interaction
